Test results: patent publication US20250289887A1 (Memorial Sloan Kettering, published 2025)

Target: T1, FKBP12 drug-induced heterodimerization domain (DmrA) (Homo sapiens (Human), UniProt P62942 2-108)
T1 construct: also called FKBP12-DmRA; FKBP12 heterodimerizing domain
Assay: drug-induced heterodimerization inside mouse T cells, with 1 µM AP21967; read out as hCD34 surface expression by flow cytometry (FIG. 9B)
Source text: In the instant example, mouse T cells were transduced with the following 2 vectors (FIG. 9A): (Vector 1) encodes a Thy1.1 reporter and a drug-activated intein-tagged antigen-binding construct comprised of a CD19-targeting scFv fused to a hCD34 affinity-tag, a CD8 hinge and transmembrane domain, an AES CL low affinity intein N terminus, an FKBP12 drug-induced heterodimerization domain (DmrA), and an E319K ER retention motif, while (Vector 2) encodes an EGFP reporter and a cytoplasmic signaling shuttle comprised of a FRB drug-induced heterodimerization domain (DmrC), an AES CL low affinity intein C terminus, a CD28 costimulatory domain, and a CD3-zeta chain. In the absence of the dimerizing drug, hCD34 expression at the cell surface is low due to presence of the ER retention motif encoded by Vector1 (FIG. 9B). […] Thus, this system enables drug-regulated splicing to regulate post-translational CAR assembly. Double-transduced cells were cultured with 1 μM A/C heterodimerizing drug and subsequently enriched by MACS sorting using anti-hCD34 magnetic beads to yield highly pure hCD34+CD19-CAR T cells (FIG. 9B). […] This methodology improves upon previous FKBP/FRB-based drug-regulated CAR systems by eliminating the FKBP/FRB proteins following trans-splicing and generating a mature CAR molecule. […]

T1 sequence (P62942 2-108 limits assumed, one chain of several): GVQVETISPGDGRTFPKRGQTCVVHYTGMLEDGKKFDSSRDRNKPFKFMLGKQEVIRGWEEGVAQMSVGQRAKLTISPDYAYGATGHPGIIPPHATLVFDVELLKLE

B1: FRB* heterodimerization domain (DmrC) (other)
chain: MILWHEMWHEGLEEASRLYFGERNVKGMFEVLEPLHAMMERGPQTLKETSFNQAYGRDLMEAQEWCRKYMKSGNVKDLLQAWDLYYHVFRRISK
notes: also called FRB drug-induced heterodimerization domain (DmrC); FRB (DmrB)
B1: binds.
